Test results published in patent publication US20210388110A1 (published 2021).
Where “and” joins values, the source holds several entries; their conditions need not be identical. Equal entries are not always repeated.

Legend:
soluble human CD3ε chain = target: T1, soluble human CD3ε chain (human, UniProt P07766 23-126, limits assumed); assay: SPR (Biacore), soluble human CD3ε chain
T1 construct: also called human CD3 epsilon chain

soluble human GPC3 = target: T2, soluble human GPC3 (human, UniProt P51654 25-563, limits assumed); assay: SPR (Biacore), single-arm antibody, soluble human GPC3
T2 construct: also called glypican 3
T2 sequence (P51654 other isoform, or with tags, fused parts or gaps limits assumed, form in doubt): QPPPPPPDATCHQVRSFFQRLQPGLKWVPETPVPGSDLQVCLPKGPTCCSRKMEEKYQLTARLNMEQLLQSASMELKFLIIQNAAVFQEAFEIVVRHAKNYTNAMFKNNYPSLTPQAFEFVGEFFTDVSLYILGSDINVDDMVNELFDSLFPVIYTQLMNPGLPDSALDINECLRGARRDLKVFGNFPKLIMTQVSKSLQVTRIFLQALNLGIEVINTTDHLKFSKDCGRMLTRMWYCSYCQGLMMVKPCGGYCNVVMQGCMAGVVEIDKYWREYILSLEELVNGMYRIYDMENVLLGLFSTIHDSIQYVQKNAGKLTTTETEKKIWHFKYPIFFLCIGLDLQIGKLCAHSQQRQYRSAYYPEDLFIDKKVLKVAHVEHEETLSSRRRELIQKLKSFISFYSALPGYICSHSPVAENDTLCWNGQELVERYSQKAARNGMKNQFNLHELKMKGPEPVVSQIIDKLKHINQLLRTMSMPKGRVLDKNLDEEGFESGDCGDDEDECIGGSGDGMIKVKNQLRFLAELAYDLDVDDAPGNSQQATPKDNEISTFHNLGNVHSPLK

T1 sequence (P07766 23-126 limits assumed): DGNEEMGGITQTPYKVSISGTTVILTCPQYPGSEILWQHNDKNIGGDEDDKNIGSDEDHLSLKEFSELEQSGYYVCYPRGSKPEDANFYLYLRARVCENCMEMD

Binder | Kd (soluble human CD3ε chain) | Kd (soluble human GPC3)
rCE115H-E22Hh/none-Hi-Kn010G3/rCE115L-k0 (antibody, human IgG1, kappa, L234A L235A, N297A, one-arm antibody (single Fab) with Fab-less hinge-Fc chain Hi-Kn010G3; also called rCE115H-E22Hh//-Hi-Kn010G3/rCE115L-k0) heavy: EVQLVETGGSLVQPGKSLKLTCATSGFTFSNAWMHWVRQSPEKQLEWVAQIKAKSNNYATYYAESVKGRFTISRDDSKSNIYLQMNSLKEEDTAVYYCRYVHYGAYYGVDAWGQGTSVTVSSASTKGPSVFPLAPSSKSTSGGTAALGCLVKDYFPEPVTVSWNSGALTSGVHTFPAVLQSSGLYSLSSVVTVPSSSLGTQTYICNVNHKPSNTKVDKKVEPKSCDKTHTCPPCPAPEAAGGPSVFLFPPKPKDTLMISRTPEVTCVVVDVSHEDPEVKFNWYVDGVEVHNAKTKPREEQYASTYRVVSVLTVLHQDWLNGKEYKCKVSNKALPAPIEKTISKAKGQPREPQVYTLPPSRCELTKNQVSLSCAVKGFYPSDIAVEWESNGQPENNYKTTPPVLDSDGSFFLVSKLTVDKSRWQQGNVFSCSVMHEALHNHYTQKSLSLSPDYKDDDDK EPKSSDKTHTCPPCPAPELLGGPSVFLFPPKPKDTLMISRTPEVTCVVVDVSHEDPEVKFNWYVDGVEVHNAKTKPREEQYNSTYRVVSVLTVLHQDWLNGKEYKCKVSNKALPAPIEKTISKAKGQPREPQVCTLPPSRDELTKNQVSLWCLVKGFYPSDIAVEWESNGQPENNYKTTPPVLDSDGSFFLYSKLTVDKSRWQQGNVFSCSVMHEALHNRYTQKSLSLSP light: DVVMTQTPVSMSVSLGGQVSISCRSSQSLVHNNGNTYVSWYIQKPSQSPQLLIYKVSNRFSGISDRFSGSGSGTDFTLKISRVEPDDLGVYYCGQGTQDPYTFGAGTKLELKRTVAAPSVFIFPPSDEQLKSGTASVVCLLNNFYPREAKVQWKVDNALQSGNSQESVTEQDSKDSTYSLSSTLTLSKADYEKHKVYACEVTHQGLSSPVTKSFNRGEC | 124 nM and 138 nM | –
GCH034-G1dh/none-Hi-Kn010G3/L0000-k0 (antibody, human IgG1, kappa, single-arm antibody) heavy: not shown EPKSSDKTHTCPPCPAPELLGGPSVFLFPPKPKDTLMISRTPEVTCVVVDVSHEDPEVKFNWYVDGVEVHNAKTKPREEQYNSTYRVVSVLTVLHQDWLNGKEYKCKVSNKALPAPIEKTISKAKGQPREPQVCTLPPSRDELTKNQVSLWCLVKGFYPSDIAVEWESNGQPENNYKTTPPVLDSDGSFFLYSKLTVDKSRWQQGNVFSCSVMHEALHNRYTQKSLSLSP light: DIVMTQSPLSLPVTPGEPASISCRSSQSLVHSNRNTYLHWYQQKPGQAPRLLIYKVSNRFSGVPDRFSGSGSGTDFTLKISRVEAEDVGVYYCGQGTQVPYTFGQGTKLEIKRTVAAPSVFIFPPSDEQLKSGTASVVCLLNNFYPREAKVQWKVDNALQSGNSQESVTEQDSKDSTYSLSSTLTLSKADYEKHKVYACEVTHQGLSSPVTKSFNRGEC | – | 5.09 nM
GCH003-G1dh/none-Hi-Kn010G3/L0000-k0 (antibody, human IgG1, kappa, single-arm antibody) heavy: not shown EPKSSDKTHTCPPCPAPELLGGPSVFLFPPKPKDTLMISRTPEVTCVVVDVSHEDPEVKFNWYVDGVEVHNAKTKPREEQYNSTYRVVSVLTVLHQDWLNGKEYKCKVSNKALPAPIEKTISKAKGQPREPQVCTLPPSRDELTKNQVSLWCLVKGFYPSDIAVEWESNGQPENNYKTTPPVLDSDGSFFLYSKLTVDKSRWQQGNVFSCSVMHEALHNRYTQKSLSLSP light: DIVMTQSPLSLPVTPGEPASISCRSSQSLVHSNRNTYLHWYQQKPGQAPRLLIYKVSNRFSGVPDRFSGSGSGTDFTLKISRVEAEDVGVYYCGQGTQVPYTFGQGTKLEIKRTVAAPSVFIFPPSDEQLKSGTASVVCLLNNFYPREAKVQWKVDNALQSGNSQESVTEQDSKDSTYSLSSTLTLSKADYEKHKVYACEVTHQGLSSPVTKSFNRGEC | – | 5.2 nM
GCH022-G1dh/none-Hi-Kn010G3/L0000-k0 (antibody, human IgG1, kappa, single-arm antibody) heavy: not shown EPKSSDKTHTCPPCPAPELLGGPSVFLFPPKPKDTLMISRTPEVTCVVVDVSHEDPEVKFNWYVDGVEVHNAKTKPREEQYNSTYRVVSVLTVLHQDWLNGKEYKCKVSNKALPAPIEKTISKAKGQPREPQVCTLPPSRDELTKNQVSLWCLVKGFYPSDIAVEWESNGQPENNYKTTPPVLDSDGSFFLYSKLTVDKSRWQQGNVFSCSVMHEALHNRYTQKSLSLSP light: DIVMTQSPLSLPVTPGEPASISCRSSQSLVHSNRNTYLHWYQQKPGQAPRLLIYKVSNRFSGVPDRFSGSGSGTDFTLKISRVEAEDVGVYYCGQGTQVPYTFGQGTKLEIKRTVAAPSVFIFPPSDEQLKSGTASVVCLLNNFYPREAKVQWKVDNALQSGNSQESVTEQDSKDSTYSLSSTLTLSKADYEKHKVYACEVTHQGLSSPVTKSFNRGEC | – | 4.92 nM
GCH023-G1dh/none-Hi-Kn010G3/L0000-k0 (antibody, human IgG1, kappa, single-arm antibody) heavy: not shown EPKSSDKTHTCPPCPAPELLGGPSVFLFPPKPKDTLMISRTPEVTCVVVDVSHEDPEVKFNWYVDGVEVHNAKTKPREEQYNSTYRVVSVLTVLHQDWLNGKEYKCKVSNKALPAPIEKTISKAKGQPREPQVCTLPPSRDELTKNQVSLWCLVKGFYPSDIAVEWESNGQPENNYKTTPPVLDSDGSFFLYSKLTVDKSRWQQGNVFSCSVMHEALHNRYTQKSLSLSP light: DIVMTQSPLSLPVTPGEPASISCRSSQSLVHSNRNTYLHWYQQKPGQAPRLLIYKVSNRFSGVPDRFSGSGSGTDFTLKISRVEAEDVGVYYCGQGTQVPYTFGQGTKLEIKRTVAAPSVFIFPPSDEQLKSGTASVVCLLNNFYPREAKVQWKVDNALQSGNSQESVTEQDSKDSTYSLSSTLTLSKADYEKHKVYACEVTHQGLSSPVTKSFNRGEC | – | 4.94 nM
GCH005-G1dh/none-Hi-Kn010G3/L0000-k0 (antibody, human IgG1, kappa, single-arm antibody) heavy: not shown EPKSSDKTHTCPPCPAPELLGGPSVFLFPPKPKDTLMISRTPEVTCVVVDVSHEDPEVKFNWYVDGVEVHNAKTKPREEQYNSTYRVVSVLTVLHQDWLNGKEYKCKVSNKALPAPIEKTISKAKGQPREPQVCTLPPSRDELTKNQVSLWCLVKGFYPSDIAVEWESNGQPENNYKTTPPVLDSDGSFFLYSKLTVDKSRWQQGNVFSCSVMHEALHNRYTQKSLSLSP light: DIVMTQSPLSLPVTPGEPASISCRSSQSLVHSNRNTYLHWYQQKPGQAPRLLIYKVSNRFSGVPDRFSGSGSGTDFTLKISRVEAEDVGVYYCGQGTQVPYTFGQGTKLEIKRTVAAPSVFIFPPSDEQLKSGTASVVCLLNNFYPREAKVQWKVDNALQSGNSQESVTEQDSKDSTYSLSSTLTLSKADYEKHKVYACEVTHQGLSSPVTKSFNRGEC | – | 5.32 nM
GCH032-G1dh/none-Hi-Kn010G3/L0000-k0 (antibody, human IgG1, kappa, single-arm antibody) heavy: not shown EPKSSDKTHTCPPCPAPELLGGPSVFLFPPKPKDTLMISRTPEVTCVVVDVSHEDPEVKFNWYVDGVEVHNAKTKPREEQYNSTYRVVSVLTVLHQDWLNGKEYKCKVSNKALPAPIEKTISKAKGQPREPQVCTLPPSRDELTKNQVSLWCLVKGFYPSDIAVEWESNGQPENNYKTTPPVLDSDGSFFLYSKLTVDKSRWQQGNVFSCSVMHEALHNRYTQKSLSLSP light: DIVMTQSPLSLPVTPGEPASISCRSSQSLVHSNRNTYLHWYQQKPGQAPRLLIYKVSNRFSGVPDRFSGSGSGTDFTLKISRVEAEDVGVYYCGQGTQVPYTFGQGTKLEIKRTVAAPSVFIFPPSDEQLKSGTASVVCLLNNFYPREAKVQWKVDNALQSGNSQESVTEQDSKDSTYSLSSTLTLSKADYEKHKVYACEVTHQGLSSPVTKSFNRGEC | – | 5.74 nM

More lines, in order of falling Kd (soluble human GPC3), values ahead:

Kd (soluble human CD3ε chain) | Kd (soluble human GPC3) | Binder
– | 5.55 nM | GCH008-G1dh/none-Hi-Kn010G3/L0000-k0 (antibody, human IgG1, kappa, single-arm antibody) heavy: not shown EPKSSDKTHTCPPCPAPELLGGPSVFLFPPKPKDTLMISRTPEVTCVVVDVSHEDPEVKFNWYVDGVEVHNAKTKPREEQYNSTYRVVSVLTVLHQDWLNGKEYKCKVSNKALPAPIEKTISKAKGQPREPQVCTLPPSRDELTKNQVSLWCLVKGFYPSDIAVEWESNGQPENNYKTTPPVLDSDGSFFLYSKLTVDKSRWQQGNVFSCSVMHEALHNRYTQKSLSLSP light: DIVMTQSPLSLPVTPGEPASISCRSSQSLVHSNRNTYLHWYQQKPGQAPRLLIYKVSNRFSGVPDRFSGSGSGTDFTLKISRVEAEDVGVYYCGQGTQVPYTFGQGTKLEIKRTVAAPSVFIFPPSDEQLKSGTASVVCLLNNFYPREAKVQWKVDNALQSGNSQESVTEQDSKDSTYSLSSTLTLSKADYEKHKVYACEVTHQGLSSPVTKSFNRGEC
– | 5.4 nM | GCH012-G1dh/none-Hi-Kn010G3/L0000-k0 (antibody, human IgG1, kappa, single-arm antibody) heavy: not shown EPKSSDKTHTCPPCPAPELLGGPSVFLFPPKPKDTLMISRTPEVTCVVVDVSHEDPEVKFNWYVDGVEVHNAKTKPREEQYNSTYRVVSVLTVLHQDWLNGKEYKCKVSNKALPAPIEKTISKAKGQPREPQVCTLPPSRDELTKNQVSLWCLVKGFYPSDIAVEWESNGQPENNYKTTPPVLDSDGSFFLYSKLTVDKSRWQQGNVFSCSVMHEALHNRYTQKSLSLSP light: DIVMTQSPLSLPVTPGEPASISCRSSQSLVHSNRNTYLHWYQQKPGQAPRLLIYKVSNRFSGVPDRFSGSGSGTDFTLKISRVEAEDVGVYYCGQGTQVPYTFGQGTKLEIKRTVAAPSVFIFPPSDEQLKSGTASVVCLLNNFYPREAKVQWKVDNALQSGNSQESVTEQDSKDSTYSLSSTLTLSKADYEKHKVYACEVTHQGLSSPVTKSFNRGEC
– | 5.17 nM | GCH026-G1dh/none-Hi-Kn010G3/L0000-k0 (antibody, human IgG1, kappa, single-arm antibody) heavy: not shown EPKSSDKTHTCPPCPAPELLGGPSVFLFPPKPKDTLMISRTPEVTCVVVDVSHEDPEVKFNWYVDGVEVHNAKTKPREEQYNSTYRVVSVLTVLHQDWLNGKEYKCKVSNKALPAPIEKTISKAKGQPREPQVCTLPPSRDELTKNQVSLWCLVKGFYPSDIAVEWESNGQPENNYKTTPPVLDSDGSFFLYSKLTVDKSRWQQGNVFSCSVMHEALHNRYTQKSLSLSP light: DIVMTQSPLSLPVTPGEPASISCRSSQSLVHSNRNTYLHWYQQKPGQAPRLLIYKVSNRFSGVPDRFSGSGSGTDFTLKISRVEAEDVGVYYCGQGTQVPYTFGQGTKLEIKRTVAAPSVFIFPPSDEQLKSGTASVVCLLNNFYPREAKVQWKVDNALQSGNSQESVTEQDSKDSTYSLSSTLTLSKADYEKHKVYACEVTHQGLSSPVTKSFNRGEC
– | 5.05 nM | GCH025-G1dh/none-Hi-Kn010G3/L0000-k0 (antibody, human IgG1, kappa, single-arm antibody) heavy: not shown EPKSSDKTHTCPPCPAPELLGGPSVFLFPPKPKDTLMISRTPEVTCVVVDVSHEDPEVKFNWYVDGVEVHNAKTKPREEQYNSTYRVVSVLTVLHQDWLNGKEYKCKVSNKALPAPIEKTISKAKGQPREPQVCTLPPSRDELTKNQVSLWCLVKGFYPSDIAVEWESNGQPENNYKTTPPVLDSDGSFFLYSKLTVDKSRWQQGNVFSCSVMHEALHNRYTQKSLSLSP light: DIVMTQSPLSLPVTPGEPASISCRSSQSLVHSNRNTYLHWYQQKPGQAPRLLIYKVSNRFSGVPDRFSGSGSGTDFTLKISRVEAEDVGVYYCGQGTQVPYTFGQGTKLEIKRTVAAPSVFIFPPSDEQLKSGTASVVCLLNNFYPREAKVQWKVDNALQSGNSQESVTEQDSKDSTYSLSSTLTLSKADYEKHKVYACEVTHQGLSSPVTKSFNRGEC
